T1: recombinant human B7-H3-his extracellular domain protein (UniProtKB-Q5ZPR3, 1 aa-461 aa) (human, UniProt Q5ZPR3 29-461)
T1 construct: range 1-461; The printed range 1-461 starts at residue 1 and so includes the signal peptide; also called Human B7-H3 ECD; recombinant human B7-H3-his protein; not shown: C-terminal his tag
T1 sequence (looked up): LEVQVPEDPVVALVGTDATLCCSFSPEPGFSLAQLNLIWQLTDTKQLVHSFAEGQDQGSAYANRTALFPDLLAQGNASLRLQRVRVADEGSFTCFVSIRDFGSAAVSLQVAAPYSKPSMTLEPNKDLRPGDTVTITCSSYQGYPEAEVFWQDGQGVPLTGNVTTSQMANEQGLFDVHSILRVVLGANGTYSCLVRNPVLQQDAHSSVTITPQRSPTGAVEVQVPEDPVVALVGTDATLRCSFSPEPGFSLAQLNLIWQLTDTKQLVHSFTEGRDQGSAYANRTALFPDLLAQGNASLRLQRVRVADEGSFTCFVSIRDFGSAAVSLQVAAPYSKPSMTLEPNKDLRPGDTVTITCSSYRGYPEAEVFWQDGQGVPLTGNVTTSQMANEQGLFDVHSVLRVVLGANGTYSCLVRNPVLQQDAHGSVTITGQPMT

B1: hz10B4-11 (antibody, human IgG1, kappa, V domains shown)
VH: EVQLVQSGAEVKKPGASVKVSCKASGYTFTEYIMHWVRQAPGQGLEWMGGINPASGGTTYNQKFKGRVTMTRDTSISTAYMELSRLRSEDTAVYYCARKGKDYFDWYFDVWGQGTTVTVSS
VL: DIQLTQSPSSLSASVGDRVTMTCSASSSVSYMHWYQQKPGKAPKLLIYDTSKLASGVPSRFSGSGSGTDFTLTISSLQPEDFATYYCQQWSSQPLTFGGGTKVEIKR
notes: hz10B4_VH3 + hz10B4_VL5; human IgG1, kappa
B2: hz10B4-14 (antibody, human IgG1, kappa, V domains shown)
VH: B1 VH with A54N, S55Q
VL: B1 VL
notes: hz10B4_VH4 + hz10B4_VL5; human IgG1, kappa
B3: hz10B4-13 (antibody, human IgG1, kappa, V domains shown)
VH: B1 VH with A54N, S55Q
VL: B1 VL with S92A, Q93S
notes: hz10B4_VH4 + hz10B4_VL4; human IgG1, kappa
B4: hz10B4-12 (antibody, human IgG1, kappa, V domains shown)
VH: B1 VH with A54N, S55Q
VL: B1 VL with Q93A
notes: hz10B4_VH4 + hz10B4_VL3; human IgG1, kappa
B5: hz17A3-5 (antibody, human IgG1, kappa, V domains shown)
VH: EVQLVQSGAEVKKPGASVKVSCKASGYTFTDYALHWVRQAPGQGLEWMGLINTYSSNTNYNQKFKDRVTMTRDTSISTAYMELSRLRSEDTAVYYCARGITAVVGTRYYAMDYWGQGTLVTVSS
VL: EIVLTQSPGTLSLSPGERATLSCRASQSISNNLHWYQQKPGQAPRLLIKYTSQNISGIPDRFSGSGSGTDFTLTISRLEPEDFAVYYCQQSYSWPLTFGGGTKVEIKR
notes: hz17A3_VH3 + hz17A3_VL3; human IgG1, kappa
B6: hz17A3-13 (antibody, human IgG1, kappa, V domains shown)
VH: B5 VH with N57S
VL: B5 VL with N31S
notes: hz17A3_VH5 + hz17A3_VL5; human IgG1, kappa
B7: hz17A3-11 (antibody, human IgG1, kappa, V domains shown)
VH: B5 VH
VL: B5 VL with N31S
notes: hz17A3_VH3 + hz17A3_VL5; human IgG1, kappa
B8: hz17A3-7 (antibody, human IgG1, kappa, V domains shown)
VH: B5 VH with N57S
VL: B5 VL
notes: hz17A3_VH5 + hz17A3_VL3; human IgG1, kappa
B9: hz17A3-8 (antibody, human IgG1, kappa, V domains shown)
VH: B5 VH
VL: B5 VL with K49Y, Y87F
notes: hz17A3_VH3 + hz17A3_VL4; human IgG1, kappa
B10: hz17A3-12 (antibody, human IgG1, kappa, V domains shown)
VH: B5 VH with N52S
VL: B5 VL with N31S
notes: hz17A3_VH4 + hz17A3_VL5; human IgG1, kappa
B11: hz17A3-9 (antibody, human IgG1, kappa, V domains shown)
VH: B5 VH with N52S
VL: B5 VL with K49Y, Y87F
notes: hz17A3_VH4 + hz17A3_VL4; human IgG1, kappa
B12: hz17A3-6 (antibody, human IgG1, kappa, V domains shown)
VH: B5 VH with N52S
VL: B5 VL
notes: hz17A3_VH4 + hz17A3_VL3; human IgG1, kappa
B13: hz17A3-2 (antibody, human IgG1, kappa, V domains shown)
VH: B5 VH with E1Q, M48I, E89D
VL: B5 VL with K49Y
notes: hz17A3_VH2 + hz17A3_VL1; human IgG1, kappa
B14: hz17A3-1 (antibody, human IgG1, kappa, V domains shown)
VH: B5 VH with E1Q, E89D
VL: B5 VL with K49Y
notes: hz17A3_VH1 + hz17A3_VL1; human IgG1, kappa
B15: hz17A3-10 (antibody, human IgG1, kappa, V domains shown)
VH: B5 VH with N57S
VL: B5 VL with K49Y, Y87F
notes: hz17A3_VH5 + hz17A3_VL4; human IgG1, kappa
B16: hz17A3-15 (antibody, human IgG1, kappa, V domains shown)
VH: B5 VH with N52S
VL: B5 VL with N54S
notes: hz17A3_VH4 + hz17A3_VL6; human IgG1, kappa

Substitutions are numbered along the chain they refer to.

Usually Kd stands for the concentration at which binding is half-saturated.

This assay concerns the target T1, recombinant human B7-H3-his …. The assay can be described thus: BLI (Octet QKe), antibody on AHC biosensor, B7-H3-his 60 nM in solution. As to the method:
According to the mutation designs, site-directed mutagenesis was performed in the plasmids expressing the humanized light chains and heavy chains respectively using StarMut gene Site-directed Mutagenesis Kit (Cat.: T111-01, GenStar). The mutated plasmids were transformed into E. coli cells for expansion, and plasmids expressing the humanized and mutated light and heavy chains based on the antibodies 9B11, 10B4, and 17A3 were obtained. […] 5-6 days after cell transfection, culture supernatants were purified through ProA affinity chromatography column to obtain different humanized antibodies. Affinities of the antibodies were determined by an assay including capturing Fc fragments of the antibodies with anti-human IgG Fc capture (AHC) biosensors using Octet QKe system instrument from Fortebio. For the assay, each of the humanized antibodies and the chimeric antibodies based on the antibodies 9B11, 10B4, and 17A3 was diluted to 4 μg/ml in PBS, and was allowed to flow through the surface of an AHC biosensor (Cat.: 18-0015, PALL) for 300 s. Recombinant human B7-H3-his protein (Accession No.: UniProtKB-Q5ZPR3, 1 aa-461 aa) was used as a mobile phase, and its concentration was 60 nM. The association time was 100 s and the dissociation time was 300 s. When the assay was finished, data from which the response values of blank control had been deducted were fitted to a 1:1 Langmuir binding model using software, and then kinetic constants for antigen-antibody binding were calculated. The light and heavy chain combinations and the affinity constant KD values of the humanized and the mutant antibodies based on the antibodies 9B11, 10B4, and 17A3 are shown in Tables 6-8 respectively.
On the technique in general: In BLI a coated tip is dipped into the sample, and binding shifts an interference pattern.
As to B1, the Kd was found to be 0.422 nM.
Turning to B2, the Kd was 0.523 nM.
On to B3, for which the Kd was determined as 0.351 nM.
Then B4, with 0.332 nM; and B5, with 0.258 nM; and B6, with 0.699 nM.
With B7 the figure was 0.299 nM; with B8, 0.422 nM; with B9, 0.462 nM.
On to B10, for which the Kd amounted to 0.573 nM.
Turning to B11, the Kd turned out to be 0.431 nM.
With B12 the figure was 0.401 nM; with B13, 0.771 nM.
For B14, the Kd stood at 0.541 nM.
Consider B15, for which the Kd is 0.401 nM.
With B16 the figure was 0.371 nM.

Values taken from patent US20250269047A1 (MABWELL SHANGHAI BIOSCIENCE, published 2025).
